From patent US12269859B2, “Synthetic immune receptors and methods of use thereof” (Angeles Therapeutics, Inc., priority 2016, dated 2025)

B1: 010716-G03 (protein)
chain: MALPVTALLLPLALLLHAARPDIQMTQSFSSLSASVGDRVTITCRASQDISNYLNWYQQKPGKAPKLLIYYTSRLHSGVPSRFSGSGSGTDYTLTISSLQPEDFATYFCQQGNTLPWTFGGGTKLEIKRLEGKPIPNPLLGLDSTGSGEDLKNVFPPEVAVFEPSKAEIAHTQKATLVCLATGFYPDHVELSWWVNGKEVHSGVCTDPQPLKEQPALNDSRYCLSSRLRVSATFWQNPRNHFRCQVQFYGLSENDEWTQDRAKPVTQIVSAEAWGRADCGITSASYHQGVLSATILYEILLGKATLYAVLVSALVLMAMVKRKDSRGRAKRSGSGATNFSLLKQAGDVEENPGPTSMDWIWRILFLVGAATGAHSFEEVQLVQSGGGLVQSGGSLRLSCRASGYTFTRYWMLWVRQRPGKGLEWVAEINPRNDRTNYNEKFKTRFTISVDRSKNTLYLQMDSLRAEDTAVYFCALGGGYAMDYWGQGTLVTVSSTREQKLISEEDGSGIQNPDPAVYQLRDSKSSDKSVCLFTDFDSQTNVSQSKDSDVYITDKCVLDMRSMDFKSNSAVAWSNKSDFACANAFNNSIIPEDTFFPSSDVPCDVKLVEKSFETDTNLNFQNLSVIGFRILLLKVAGFNLLMTLRLWSSRAKRSGSGVKQTLNFDLLKLAGDVESNPGPSRGHMTEYKPTVRLATRDDVPRAVRTLAAAFADYPATRHTVDPDRHIERVTELQELFLTRVGLDIGKVWVADDGAAVAVWTTPESVEAGAVFAEIGPRMAELSGSRLAAQQQMEGLLAPHRPKEPAWFLATVGVSPDHQGKGLGSAVVLPGVEAAERAGVPAFLETSAPRNLPFYERLGFTVTADVEVPEGPRTWCMTRKPGA
modifications: Synthetic Immune Receptor (SIR)
B2: IL-7: exogenous recombinant human IL-7 (protein, UniProt P13232 26-177, looked up)
Interleukin-7: DCDIEGKDGKQYESVLMVSIDQLLDSMKEIGSNCLNNEFNFFKRHICDANKEGMFLFRAARKLRQFLKMNSTGDFDLHLLKVSEGTTILLNCTGQVKGRKPAALGEAQPTKSLEENKSLKEQKKLNDLCFLKRLLQEIKTCWNKILMGTKEH

Legend:
SKOV-3 cells = experiment: SKOV-3 intraperitoneal xenograft in NSG mice (survival); type: in vivo; conditions: NSG mice (n = 3), 1×10^6 SKOV-3 cells intraperitoneally, 5 million T cells intravenously
Description: Human peripheral blood T cells isolated using CD3 magnetic beads were infected with lentiviruses expressing the indicated SIR constructs targeting Folate receptor 1 (FR1), L1CAM and Epcam1. On day 1, the NSG mice were sub-lethally irradiated at a dose of 175 cGy. 24 hours post irradiation (day 2), mice were injected with 1×10^6 SKOV-3 cells intraperitoneally. On day 3, the mice were treated intravenously with 5 million indicated CAR-T cells. Beginning On day 4, mice were injected with human IL-2 i.p. at a dose of 400 IU/mice every alternate day after the injection CAR-T cells till the death of all mice in control group.

[1] = tested on: target antigen-expressing cell line; experiment: Jurkat NFAT-GFP assay, coculture with target cell lines expressing the respective target antigen (summary Table 10A); type: cell-based, human; parameters: key: The signs +/−, +, 2+ etc. after the name of the cell lines indicate the relative degree of positivity on the Jurkat-NFAT-GFP assay as measured by the % GFP positive cells; +: relative degree of positivity on the Jurkat-NFAT-GFP assay as measured by the % GFP positive cells; 2+: relative degree of positivity on the Jurkat-NFAT-GFP assay as measured by the % GFP positive cells
Procedure, shortened: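 Coculture of SIR-bearing Jurkat NFAT-GFP reporters with target cells, ~1:2 E:T, ~4–18 h. FACS quantified % GFP+ cells, ranked semi-quantitatively against parental Jurkat-NFAT-GFP.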

RAJI cells = experiment: RAJI xenograft model of lymphoma in NSG mice (survival); type: in vivo; conditions: 200 ng/mouse intraperitoneal three times, with SIR-T cells
Description: In vivo efficacy of SIR targeting CD19. […] SIR constructs and Gluc-PAC-G07 control construct encoding non-secretory form of Guassia Luciferase. Approximately half the cells were selected with puromycin while the other half was expanded without puromycin selection. NSG mice (Jackson Lab) were sub-lethally irradiated at a dose of 175 cGy. Approximately 24 hours post irradiation (day 2), mice were injected with 2.5×10^4 RAJI cells via tail-vein. […] Control mice (n=5) received no T cells or uninfected T cells. Mice were given human IL2 (400 IU intraperitoneally) on alternate days till the death of all mice in control group.
Approximately half the cells were selected with puromycin while the other half was expanded without puromycin selection. NSG mice (Jackson Lab) were sub-lethally irradiated at a dose of 175 cGy. Approximately 24 hours post irradiation (day 2), mice were injected with 2.5×10^4 RAJI cells via tail-vein. […] Control mice (n=5) received no T cells or uninfected T cells. Mice were given human IL2 (400 IU intraperitoneally) on alternate days till the death of all mice in control group.
SIR construct. NSG mice (Jackson Lab) were sub-lethally irradiated at a dose of 175 cGy. Approximately 24 hours post irradiation (day 2), mice were injected with 2.5×10^4 RAJI cells via tail-vein. […] SIR encoding lentivirus. […]

| Molecule | Median Survival (SKOV-3 cells) | NFAT-GFP ASSAY Positive Cell lines ([1]; coculture with A549 cells) | NFAT-GFP ASSAY Positive Cell lines ([1]; coculture with LoVo cells) | tumor rejection and survival (in words) (RAJI cells) |
| --- | --- | --- | --- | --- |
| B1 | 63 days | LoVo (+), A549 (+), | LoVo (+), A549 (+), |  |
| B2 |  |  |  | reject their tumor and survive longer |
